Reference: paper PMC4505445 (The Journal of Biological Chemistry, 2015)

Molecular target: biotinylated Aβ oligomers (from bAβ1–42) (UniProt P05067 672-713)
Test: ELISA
Conditions: both partners purified

B1: wild-type human prion protein (amino acids 23–231), unlabeled (domain or fragment)
chain: not shown
binding result: binds
